Laboratory results from US20230056815A1 (VIELA BIO, published 2023).

Tests used:
[1] = biological target: T1, mouse FLT3L on CHO cells (mouse, UniProt P49772 27-232); experiment: flow cytometry on CHO cells expressing mouse FLT3L, anti-hu IgG-PE detection
T1 construct: whole, on cells; also called cell surface mouse FLT3L
T1 sequence (looked up): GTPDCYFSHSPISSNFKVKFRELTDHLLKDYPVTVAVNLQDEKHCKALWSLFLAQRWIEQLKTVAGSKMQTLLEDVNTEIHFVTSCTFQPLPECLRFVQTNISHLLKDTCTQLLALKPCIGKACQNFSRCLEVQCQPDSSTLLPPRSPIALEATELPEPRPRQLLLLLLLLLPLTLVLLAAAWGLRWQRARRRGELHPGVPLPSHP
Description: (§1) Consistent with this, cell surface binding to human, cyno, and mouse FLT3L was evaluated by transfecting Chinese hamster ovary (CHO) cells with the respective full-length protein for each species. Candidate clones were incubated with FLT3L-expressing cell lines for 1 hour at 4° C. before being washed twice to remove unbound antibody. Cells were then incubated with PE-labeled goat anti-hu IgG secondary detection pAb to quantitate bound antibody which was measured by flow cytometric analysis of PE signal. The huFLT3-Fc construct, on a hu IgG backbone, was used as a positive control reagent for FLT3L expression as it cross reacts with cyno and mouse, in addition to human ligand.

[2] = biological target: T2, human FLT3L on the cell surface (human, UniProt P49771 27-235); experiment: flow cytometry on CHO cells expressing full-length human FLT3L, PE anti-hu IgG; CHO cells transfected with full-length human FLT3L, PE anti-hu IgG
T2 construct: whole, on cells; The assay field of each row says which cells carried it; also called cell-surface FLT3L; huFLT3L-expressing CHO cells
T2 sequence (looked up): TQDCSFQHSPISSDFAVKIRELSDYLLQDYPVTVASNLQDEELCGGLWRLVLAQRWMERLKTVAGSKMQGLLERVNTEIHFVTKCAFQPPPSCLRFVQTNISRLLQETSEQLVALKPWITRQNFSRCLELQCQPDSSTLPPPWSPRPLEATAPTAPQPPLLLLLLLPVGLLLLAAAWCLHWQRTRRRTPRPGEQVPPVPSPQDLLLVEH
Description: as §1
(§2) As differences were apparent in the degree of receptor occupancy for each clone, both EC50 and max occupancy were noted (expressed as percent relative to FLT3-Fc) and taken into account in the final evaluation. Results are shown in Table 4 for human, cyno, and mouse FLT3L expressed in CHO cells.

[3] = biological target: T3, human soluble FLT3L (recombinant huFLT3L) (human, UniProt P49771 27-184); experiment: cell-based or functional assay
T3 sequence (looked up): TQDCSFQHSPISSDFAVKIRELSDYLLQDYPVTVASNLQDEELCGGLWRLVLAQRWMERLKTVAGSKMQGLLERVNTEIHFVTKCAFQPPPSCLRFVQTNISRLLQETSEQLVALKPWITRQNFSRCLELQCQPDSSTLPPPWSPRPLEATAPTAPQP

[4] = biological target: cynomolgus monkey soluble FLT3L (cynomolgus monkey); experiment: cell-based or functional assay
[5] = biological target: T4, cynomolgus monkey FLT3L on CHO cells (cynomolgus monkey); experiment: flow cytometry on CHO cells expressing full-length cyno FLT3L, PE anti-hu IgG
T4 construct: whole, on cells; also called cell surface cyno FLT3L
Description: as §1, §2

[6] = biological target: T5, recombinant human colony stimulating factor 1 (CSF1) (human, UniProt P09603 33-190, limits assumed); experiment: ELISA on coated recombinant human CSF1
T5 construct: also called huCSF1; huCSF
T5 sequence (looked up): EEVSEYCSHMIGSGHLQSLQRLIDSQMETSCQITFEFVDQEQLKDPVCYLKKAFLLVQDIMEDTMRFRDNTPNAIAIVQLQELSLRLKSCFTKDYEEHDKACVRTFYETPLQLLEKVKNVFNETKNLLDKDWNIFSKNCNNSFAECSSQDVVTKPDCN
Description: (§3) To test this, an ELISA plate was coated with 2 µg of recombinant human SCF or CSF1. After washing, the plate was blocked with 3% milk in Tris-Phosphate Buffered Saline (TPBS) and lead antibodies were added in serial (×2) dilution, starting at 50 µg/ml. After incubation, unbound antibody was removed by washing and bound antibody was detected using anti-human IgG-HRP in combination with TMB substrate for color development. Commercially available goat anti-SCF pAb and mouse anti-CSF1 mAb were used as positive binding controls.

[7] = biological target: T2, human FLT3L on the cell surface; experiment: flow cytometry on CHO cells expressing full-length human FLT3L, PE anti-hu IgG; CHO cells transfected with full-length human FLT3L; maximum occupancy relative to FLT3-Fc
Description: as §1, §2

[8] = biological target: T6, mouse soluble FLT3L (mouse, UniProt P49772 27-189); experiment: inhibition of FLT3 downregulation on RS4;11 cells by soluble mouse FLT3L (N/A in Table 3)
T6 construct: extracellular domain; also called mouse sFLT3L; muFLT3L
T6 sequence (looked up): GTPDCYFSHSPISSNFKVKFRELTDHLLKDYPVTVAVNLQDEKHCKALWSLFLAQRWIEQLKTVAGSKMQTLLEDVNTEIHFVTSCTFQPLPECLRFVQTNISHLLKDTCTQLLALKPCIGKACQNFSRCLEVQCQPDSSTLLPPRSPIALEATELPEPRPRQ
Description: Screening assay conditions were further refined to determine ideal cell culture conditions for evaluating anti-FLT3L candidate clones. Final conditions were: 50,000 RS4;11 cells per well incubated with 96 pM rhuFLT3L with or without anti-FLT3L mAb candidate clones in complete Roswell Park Memorial Institute (RPMI) media with one percent bovine serum albumin (BSA) for 2 hours in an humidified incubator set at 37° C., 5% CO2. Subsequent downregulation of FLT3 expression was determined by flow cytometry as measured either as raw MFI or % downregulation. […] (FIG. 3A). Assay efficacy was confirmed using a commercially available mouse anti-huFLT3L antibody control (MAB608, R&D Systems) (FIG. 3B). Due to the cross-species reactivity of FLT3 with its ligand, this assay was effective for testing clones against human, cyno, and rodent FLT3L, despite being a human cell line. For mouse FLT3L, the EC80 was 36 pM.
Upon ligation of FLT3L to FLT3, the receptor dimerizes, autophosphorylates, and propagates a signaling cascade once internalized. This process, measured by FLT3 downregulation, can be inhibited by antibodies that bind FLT3L. Thus, lead candidates were tested for their ability to inhibit FLT3 downregulation on RS4;11 cells by binding human, mouse, or cynomolgus monkey (cyno) soluble FLT3L (sFLT3L). […] FLT3 expression on RS4;11 cells was determined using flow cytometry and reported as MFI.

[9] = biological target: T7, recombinant human stem cell factor (SCF) (human, UniProt P21583 26-189); experiment: ELISA on coated recombinant human SCF
T7 construct: also called huSCF; KIT-ligand
Description: as §3

[10] = biological target: T3, human soluble FLT3L (recombinant …); experiment: cell-based or functional assay; remark: listed apart in the source

T7 sequence (P21583 26-189 limits assumed): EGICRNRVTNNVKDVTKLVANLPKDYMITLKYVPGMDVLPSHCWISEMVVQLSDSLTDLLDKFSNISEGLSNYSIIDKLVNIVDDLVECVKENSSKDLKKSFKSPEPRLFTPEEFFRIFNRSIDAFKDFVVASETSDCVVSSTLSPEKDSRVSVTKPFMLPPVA

EC50 [2]: 0.157 nM
IC50 (nM), inhibition of FLT3 downregulation on RS4;11 cells [3]: 385 nM
IC50 (nM), inhibition of FLT3 downregulation on RS4;11 cells [4]: 564 nM
EC50 [5]: 1.1 nM
maximum occupancy (% relative to FLT3-Fc) [5]: 100%
binding result [6]: no binding (tested: about 0.3 uM)
maximum occupancy (% relative to FLT3-Fc) [7]: 40%
binding result [8]: no binding
binding result [9]: no binding (tested: about 0.3 uM)
IC50 (nM) against 0.476 nM FLT3L, ERK phosphorylation in CD133+ stem cells [10]: 187 nM
IC50 (nM) against 0.476 nM FLT3L, MEK phosphorylation in CD133+ stem cells [10]: 181 nM
B1: CAT5D9 antibody (IgG1 TM format) (antibody, V domains shown)
VH: QVQLVQSGAEVKKPGSSVKVSCKISGGTFSSYALSWVRQAPGQGLEWMGGIIPVFRTASYAQKFQGRVTITVDESASTGYIELSSLKSEDTATYYCASNNYVWGSYRFWGQGTTVTVSS
VL: NFMLTQPHSVSESPGKTVTISCTRTSGNIAGYFVQWYQQRPGSSPTTVIYEDYQRPSGVPDRFSGSIDRSSNSASLTISGLKPDDEADYYCQSYDDTSQGVFGAGTKVTVLG
notes: also called clone 5D9; parental 5D9
binding result [1]: no binding (tested: x = -7.2 (x axis without title or unit))
